The values below come from a protein production outcome set (Wang et al. 2014).
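Note: failed if final PepcDB status was selected cloned or expressed and not failed if soluble or beyond.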

This series in a line: label from the status in PepcDB records.
Turning to “MSERKINDEPKSMLLLQRGEEFGKVNNGSKNRAFSSFTKFKIPSQFKTNSSITSFSNRREDIREPNSNSLFSMYNNDVLLKYDTTEVALATTNMFTHTVWNNKSEEIISYGYGSHVSFSCFIGFHY”, the protein production result is “failed”.

On to “MSERNPILITGAAGEVGGVSRTTVDMLLEQGHPVRAFVRQDDERAHALRQAGAEVFVGDLLTIADVSAALKGVRRIYFSMSLSPYYTDAVSLMAAAARAQGDIEVFVNISEYEQSFMTFEKMTAPEEERRAWLGGLVANWSPQQRAHWVAEQVLDWSGLPTVNIRAAMFVENPLMTWLALEPLANGELRLPFGHHRLAPIAGYDVAELCVKILADPAPHISKSYDLNGPELKDMHGFAEDYAAALGRQVTYVPEDVETWNETYVDTVLGALPHTAEHLKTLTRLMGGGGYRGVTDQLETLLGRPPKTVRWALENHPRIRKLASA”, for which the protein production entry is listed as “failed”.

As for “MSERVCAVIVTYNRKALLRECLKAVLSQTRPPDHVLVVDNASTDGTPEMLQEEFPQVEVLRLPENQGGAGGFHEGMKRAYEQGVDWLWLMDDDTIPKAKALEALLEAARLPLDPRPRVLASRQLLPNGLPHPTTAFVNPTDPRHPFLWLRLRPRYRPIRWALFTSVLLHRSLVEEHGLPHKAFFIWEDDLEYTARALRRGLGLQVRDSEVIHKSASKPYISATTGENRLFYGVRNRIWVLRSPAFGPLGKAFLALQLLFGLLTYLAFHPSQKSLQEIGRALRAGLTTSPCLEHHHHHH”, the protein production result is “failed”.

For “MSESCILFFVKYPEPGKVKTRLGEVVGNDKAAMLYRHFVQDMLQGLARLHADLHICYVPGDADLPEKFKAWLGPQHMFAAQQGLDLGERMKHAMQKAFDDGYDRVVLMGSDIPDYPCELVQKALNDLQHYDAAIGPAFDGGYYLIGFRKDSFCPDVFDGIRWGEADVYQPTVEKMRRARLEVLQLPDWNDVDTVWDLNVLYRTNKNSSFRRSSTYALLRENDALIRQYDIDLPGMAPVEKE”, the protein production entry is listed as “not failed”.

With “MSESNISGPLAGEYRDLAVYGRLATVTMIWGGTFVAGRYLAGGLSPLLAASLRFLLASLALLGFMAVARIPLVRPSLRQFGQLALLGFFGIFFYNLCFFLGLEQVKASRASLIVALNPAVIALASWALFKERLGRRKLLGIALCLCGAALVICSRDPSALAAQAGSWQGDLLILGCVLGWGVYSLFSRGLNHSLGSLQTVTCSILLGTLMLCAATLIRGEFDLQAVARLNLAQGLSLLYLGVLGSALAYIWYYDGLRRIGATRCGVFIALNPLTAVILGALVLGEQLSPVMGLGGALILGGIYQCNKPLAGGAKKAIL”, the protein production entry was “failed”.

Regarding “MSETELRKRQAQFTRELHGDDIGKKTGLSALMSKNNSAQKEAVQKYLRNWDGRTDKDAEERRLEDYNEATHSYYNVVTDFYEYGWGSSFHFSRFYKGESFAASIARHEHYLAYKAGIQRGDLVLDVGCGVGGPAREIARFTGCNVIGLNNNDYQIAKAKYYAKKYNLSDQMDFVKGDFMKMDFEENTFDKVYAIEATCHAPKLEGVYSEIYKVLKPGGTFAVYEWVMTDKYDENNPEHRKIAYEIELGDGIPKMFHVDVARKALKNCGFEVLVSEDLADNDDEIPWYYPLTGEWKYVQNLANLATFFRTSYLGRQFTTAMVTVMEKLGLAPEGSKEVTAALENAAVGLVAGGKSKLFTPMMLFVARKPENAETPSQTSQEATQ”, the protein production entry was “failed”.

Take “MSETLAVVRASRPNFLLLAPLCAGLGLAVAWQQGQAPELLHTFLVFLGAVLAHAAVNLLNEYDDFRSGLDMITERTPFSGGSGALPEVPTAARRVLWAGLGTLAVVVTIGLYFLWLRGLPLLVLGAAGVVLVLTYTRWITRSPLLCLLAPGMGFGPIMVLGTVIALGASIDTSALLASLVALLMVSELLLINQIPDAEADRAIGRRHLVITLGPEKAAHLVAGLLLASYGVIVAGMVSGYLAMTSLIALAPLPAAVWISLRLPRVLAMPDQLNRVLGANVAVLLSTLALLVTGLSL”: the protein production result is “failed”.

With “MSEVSVLLLAVILDLLIGEPPHRLHPVVWMGSAVEWMRNILGNSRISGIILTIAVAAPFTLPLFLINHLQDPLNLIISSILLSAVISIRMLVTSALEVGGSLKEDIEDARRKLSMLVSRDTTSLSDEQITSAAIETLTENITDSVTAPIFYFILLGLPGAFLYRVVNTLDAMVGYLDSENRDIGWFPARLDDILNYIPSRITGVLMVPAALLLGMNWRGSFRILLRDARRTPSPNSGFTMAAAAGALSVQLEKPGVYVLGDPCDGLDNEKLLDAVKLSSLTLILFTLAAAGVMLVIP”, the protein production entry is listed as “failed”.

Take “MSEYLHIIIWFFLIEALSFISVPFIRSAGNRLADGGYSVSRALGIMLVTYLSWIFSYILGFSFTAVLIAFFLLCSVSIFLYRKQKFFPGRKVLVVNELVFASGFFFFLLVRTYLPEIYRHEKFMDFAFLNAVIRASSFPPQDPWFAGGLMDFYYYFGYLSVAVFGKLSAVKPSILFNLAVALTFALSLNAFFGMGYNLTRGKIRYGILTAVFGMLLGNLQGLIEFVSVYIRHEQALGGYYWSSSRVIPFTINEFPYFSFIHGDLHSHMLAIPFQLLVLAFLLNMHFRKNEDSIFENSLALLMFSMSLGFLFPFNSWDFPVYFGLAFLVIFAFYCGDYVHNRNLFAAVAKFSNSMIFISIFSFLPYLLFYLDFNPQAAGGFDFVLPELRTETDRFLILFGLFLFLVFSFLITRLDSRRKIVFFVLLAGVSALLSKAWSIPLLAVLLPVFVFSLLLFLKDIPERSASGFVYLLISAASFIALLCEVIFLDDPISGEFARMNTVFKFYMHLWIFLAISAAYSYYDLNSHYAARSGNRKTLKQFVKKGWSVILVILIICCAIFPAVSTVTRIKEMNAEPSLDGMEYMRELDRGDYNAIRWMQANIKGSPVILETSEDDSSYSYACRVSSNTGIPAVIGWARHERFWGRDHEEVKKRIGDVSLIYSTGSEEEAIELIEKYNVTYVYIGTLERQVYDVNTKKFENKAYFEPVYEGSATIYKLKKKP”: the protein production entry is “failed”.

Regarding “MSFKDLREFIDHLEQKGRLKRITHPVDPAYEMTEISDRTLRAGGPALLFENPIGYNVPVLTNLFGTPERVAIGMGREDVKELREVGKLLAYLKEPEPPKGFKDALEKLPVFKQVLNMPAKRLRKAPCQDIVWQGDEVDLDKIPVMSCWAEDVAPLLTWGLTVTKGPNKKRQNLGIYRQQKIAKNKIIMRWLAHRGGALDLRDWMETNPGKPFPVSVAFGADPATILGAVTPVPDTLSEYAFAGLLRGSKTEVVKSISNDLEVPASAEIVMEGYIDPNEFADEGPYGDHTGYYNEKEKHHVFTITHITMRKDPIYHSTYTGRPPDEPAVLGVALNEVFVPILQKQFPEIEDFYLPPEGCSYRMAVVTMKKQYPGHAKRVMMGVWSFLRQFMYTKFVIVCDESVNARDWNDVVKAMTEHMDPVRDTLMIDNTPIDSLDFASPVVGLGSKMGLDATIKWDAELATRPQISKQDSKVITEADLESLKQQRPEIIDIYLPPTTNNRFAVVTMKKDQAGQSQALMEYLWDFFAQYTDNKFVILCDEDVNARDWNDIIWAVTTRMDPDRDTTRVSGKAESSSKLGLDATNKFESEVTREWGTPIKKDPKLVAKVDEIWDQLGIL”, the protein production result is “failed”.

In the case of “MSFLVLLLAVLIEKFSALRQRVQRDEPWLNAFARREASPRTAKRPWLTLALLILVPVLLLQLALTIIGSVAYGWLVLPIHLLVLIYSLGRVDLIAVLGPFRDACRRGDAQAAVHVAQRDMRVEADNGEQLLQGVQGYMLWQAFQSFFAVIFWYFVLGPVAALAYRLLALAAEHGKTPPLVERAGQLRHAFDWVPVRLLAASFALVGNFVAVSRVMLHELLNWNISAAQLITRVGCAASEVPPPVIGTQGVTSLDMLWELLVRAAIVWYAGFALWTLLR”, the protein production entry is reported as “failed”.

For the sequence “MSFNTIIDWNSCTAEQQRQLLMRPAISASESITRTVNDILDNVKARGDEALREYSAKFDKTTVTALKVSAEEIAAASERLSDELKQAMAVAVKNIETFHTAQKLPPVDVETQPGVRCQQVTRPVASVGLYIPGGSAPLFSTVLMLATPASIAGCKKVVLCSPPPIADEILYAAQLCGVQDVFNVGGAQAIAALAFGTESVPKVDKIFGPGNAFVTEAKRQVSQRLDGAAIDMPAGPSEVLVIADSGATPDFVASDLLSQAEHGPDSQVILLTPAADMARRVAEAVERQLAELPRAETARQALNASRLIVTKDLAQCVEISNQYGPEHLIIQTRNARELVDSITSAGSVFLGDWSPESAGDYASGTNHVLPTYGYTATCSSLGLADFQKRMTVQELSKEGFSALASTIETLAAAERLTAHKNAVTLRVNALKEQA”, the protein production result is “not failed”.

Regarding “MSFRKVEKKPTEMGRNMTHEKSDSDSDNEGAPMTVGGYTEFVARSDSDWDEPVYSGKARSNYNLTGTAKGTGPINSFSRKHFPNY”, the protein production entry is recorded as “failed”.
